Results taken from patent publication US12404607.

Key:
[1] = molecular target: SARS-CoV-2 spike on GFP reporter pseudotype virus (Integral Molecular) (SARS-CoV-2) (UniProt P0DTC2); assay: cell-based or functional assay
[2] = molecular target: SARS-CoV-2 spike receptor binding domain (RBD) antigen (SARS-CoV-2) (UniProt P0DTC2); assay: ELISA, coated RBD
[3] = molecular target: SARS-CoV-2 spike S1 antigen (SARS-CoV-2) (UniProt P0DTC2); assay: ELISA, coated S1
[4] = molecular target: SARS CoV-2 Spike RBD protein of the Spike:ACE2 blocking ELISA (BPS Bioscience) (SARS-CoV-2) (UniProt P0DTC2); assay: competition ELISA: RBD coated, test article, then ACE2-His (competitor)
SARS CoV RBD (SARS-CoV) = SARS CoV RBD (SARS-CoV) (UniProt P59594); assay: ELISA, antigen coated at 2 ug/mL

**Q.** With “SARS CoV mAb [CR3022] (Absolute Antibody)” as the substance, how does the CoV-2 pseudotype neutralization IC50 [1] read?
**A.** 100 µg/mL

**Q.** What about the EC50 [2] of the same substance?
**A.** 0.088 µg/mL

**Q.** What about the EC50 [3] of the same substance?
**A.** 0.078 µg/mL

**Q.** “SARS CoV-2 mAb [SAD-S35] (Acro Biosystems) (antibody)” was tested. Which CoV-2 pseudotype neutralization IC50 [1] did it give?
**A.** 0.26 µg/mL

**Q.** What about the IC50 [4] of the same substance?
**A.** 1.1 µg/mL

**Q.** What about the EC50 [2] of the same substance?
**A.** 0.057 µg/mL

**Q.** What about the EC50 [3] of the same substance?
**A.** 0.058 µg/mL

**Q.** What does the source list for “rCIG (recombinant coronavirus-2 immune globulin; recombinant anti-coronavirus 19 hyperimmune gammaglobulin)”?
**A.** CoV-2 pseudotype neutralization IC50 [1]: 0.43 µg/mL; IC50 [4]: 2.2 µg/mL; EC50 (SARS CoV RBD (SARS-CoV)): 0.6 µg/mL; EC50 [2]: 0.1 µg/mL; EC50 [3]: 0.092 µg/mL
